# Experimental data taken from PMC10245805 (bioRxiv, 2024).
# Positions count from the first letter of the chain named. In names and notes the source's numbering stands.
# B1: wild-type (WT) human asparagine synthetase (ASNS) (enzyme, UniProt P08243 1-561, looked up)
# chain: MCGIWALFGSDDCLSVQCLSAMKIAHRGPDAFRFENVNGYTNCCFGFHRLAVVDPLFGMQPIRVKKYPYLWLCYNGEIYNHKKMQQHFEFEYQTKVDGEIILHLYDKGGIEQTICMLDGVFAFVLLDTANKKVFLGRDTYGVRPLFKAMTEDGFLAVCSEAKGLVTLKHSATPFLKVEPFLPGHYEVLDLKPNGKVASVEMVKYHHCRDVPLHALYDNVEKLFPGFEIETVKNNLRILFNNAVKKRLMTDRRIGCLLSGGLDSSLVAATLLKQLKEAQVQYPLQTFAIGMEDSPDLLAARKVADHIGSEHYEVLFNSEEGIQALDEVIFSLETYDITTVRASVGMYLISKYIRKNTDSVVIFSGEGSDELTQGYIYFHKAPSPEKAEEESERLLRELYLFDVLRADRTTAAHGLELRVPFLDHRFSSYYLSLPPEMRIPKNGIEKHLLRETFEDSNLIPKEILWRPKEAFSDGITSVKNSWFKILQEYVEHQVDDAMMANAAQKFPFNTPKTKEGYYYRQVFERHYPGRADWLSHYWMPKWINATDPSARTLTHYKSAVKA
# B2: R142I variant of human asparagine synthetase (ASNS) (enzyme, UniProt P08243 1-561, looked up)
# chain: B1 chain with R143I
# Target: the molecule itself
# Experiment: cryo-EM structure
row,Protein,stoichiometry N
1,B1,2
2,B2,2
